The results in this text go back to publication PMC10850970, “Characterization of N-glycosylation and its functional role in SIDT1-Mediated RNA uptake”.

First the molecules themselves.
B1: SIDT1: SIDT1ECD mutant (all N to Q) (protein)
parent chain: MRGCLRLALLCALPWLLLAASPGHPAKSPRQPPAPRRDPFDAARGADFDHVYSGVVNLSTENIYSFNYTSQPDQVTAVRVYVNSSSENLNYPVLVVVRQQKEVLSWQVPLLFQGLYQRSYNYQEVSRTLCPSEATNETGPLQQLIFVDVASMAPLGAQYKLLVTKLKHFQLRTNVAFHFTASPSQPQYFLYKFPKDVDSVIIKVVSEMAYPCSVVSVQNIMCPVYDLDHNVEFNGVYQSMTKKAAITLQKKDFPGEQFFVVFVIKPEDYACGGSFFIQEKENQTWNLQRKKNLEVTIVPSIKESVYVKSSLFSVFIFLSFYLGCLLVGFVHYLRFQRKSIDGSFGSNDGSGNMVASHPIAASTPEGSNYGTIDESSSSPGRQMSSSDGGPPGQSDTDSSVEESDFDTMPDIESDKNIIRTKMFLYLSDLSRKDRRIVSKKYKIYFWNIITIAVFYALPVIQLVITYQTVVNVTGNQDICYYNFLCAHPLGVLSAFNNILSNLGHVLLGFLFLLIVLRRDILHRRALEAKDIFAVEYGIPKHFGLFYAMGIALMMEGVLSACYHVCPNYSNFQFDTSFMYMIAGLCMLKLYQTRHPDINASAYSAYASFAVVIMVTVLGVVFGKNDVWFWVIFSAIHVLASLALSTQIYYMGRFKIDLGIFRRAAMVFYTDCIQQCSRPLYMDRMVLLVVGNLVNWSFALFGLIYRPRDFASYMLGIFICNLLLYLAFYIIMKLRSSEKVLPVPLFCIVATAVMWAAALYFFFQNLSSWEGTPAESREKNRECILLDFFDDHDIWHFLSATALFFSFLVLLTLDDDLDVVRRDQIPVF
B2: SIDT1: N57Q (protein)
parent chain: MRGCLRLALLCALPWLLLAASPGHPAKSPRQPPAPRRDPFDAARGADFDHVYSGVVNLSTENIYSFNYTSQPDQVTAVRVYVNSSSENLNYPVLVVVRQQKEVLSWQVPLLFQGLYQRSYNYQEVSRTLCPSEATNETGPLQQLIFVDVASMAPLGAQYKLLVTKLKHFQLRTNVAFHFTASPSQPQYFLYKFPKDVDSVIIKVVSEMAYPCSVVSVQNIMCPVYDLDHNVEFNGVYQSMTKKAAITLQKKDFPGEQFFVVFVIKPEDYACGGSFFIQEKENQTWNLQRKKNLEVTIVPSIKESVYVKSSLFSVFIFLSFYLGCLLVGFVHYLRFQRKSIDGSFGSNDGSGNMVASHPIAASTPEGSNYGTIDESSSSPGRQMSSSDGGPPGQSDTDSSVEESDFDTMPDIESDKNIIRTKMFLYLSDLSRKDRRIVSKKYKIYFWNIITIAVFYALPVIQLVITYQTVVNVTGNQDICYYNFLCAHPLGVLSAFNNILSNLGHVLLGFLFLLIVLRRDILHRRALEAKDIFAVEYGIPKHFGLFYAMGIALMMEGVLSACYHVCPNYSNFQFDTSFMYMIAGLCMLKLYQTRHPDINASAYSAYASFAVVIMVTVLGVVFGKNDVWFWVIFSAIHVLASLALSTQIYYMGRFKIDLGIFRRAAMVFYTDCIQQCSRPLYMDRMVLLVVGNLVNWSFALFGLIYRPRDFASYMLGIFICNLLLYLAFYIIMKLRSSEKVLPVPLFCIVATAVMWAAALYFFFQNLSSWEGTPAESREKNRECILLDFFDDHDIWHFLSATALFFSFLVLLTLDDDLDVVRRDQIPVF
B3: SIDT1: N136Q (protein)
parent chain: MRGCLRLALLCALPWLLLAASPGHPAKSPRQPPAPRRDPFDAARGADFDHVYSGVVNLSTENIYSFNYTSQPDQVTAVRVYVNSSSENLNYPVLVVVRQQKEVLSWQVPLLFQGLYQRSYNYQEVSRTLCPSEATNETGPLQQLIFVDVASMAPLGAQYKLLVTKLKHFQLRTNVAFHFTASPSQPQYFLYKFPKDVDSVIIKVVSEMAYPCSVVSVQNIMCPVYDLDHNVEFNGVYQSMTKKAAITLQKKDFPGEQFFVVFVIKPEDYACGGSFFIQEKENQTWNLQRKKNLEVTIVPSIKESVYVKSSLFSVFIFLSFYLGCLLVGFVHYLRFQRKSIDGSFGSNDGSGNMVASHPIAASTPEGSNYGTIDESSSSPGRQMSSSDGGPPGQSDTDSSVEESDFDTMPDIESDKNIIRTKMFLYLSDLSRKDRRIVSKKYKIYFWNIITIAVFYALPVIQLVITYQTVVNVTGNQDICYYNFLCAHPLGVLSAFNNILSNLGHVLLGFLFLLIVLRRDILHRRALEAKDIFAVEYGIPKHFGLFYAMGIALMMEGVLSACYHVCPNYSNFQFDTSFMYMIAGLCMLKLYQTRHPDINASAYSAYASFAVVIMVTVLGVVFGKNDVWFWVIFSAIHVLASLALSTQIYYMGRFKIDLGIFRRAAMVFYTDCIQQCSRPLYMDRMVLLVVGNLVNWSFALFGLIYRPRDFASYMLGIFICNLLLYLAFYIIMKLRSSEKVLPVPLFCIVATAVMWAAALYFFFQNLSSWEGTPAESREKNRECILLDFFDDHDIWHFLSATALFFSFLVLLTLDDDLDVVRRDQIPVF
B4: SIDT1: N67Q (protein)
parent chain: MRGCLRLALLCALPWLLLAASPGHPAKSPRQPPAPRRDPFDAARGADFDHVYSGVVNLSTENIYSFNYTSQPDQVTAVRVYVNSSSENLNYPVLVVVRQQKEVLSWQVPLLFQGLYQRSYNYQEVSRTLCPSEATNETGPLQQLIFVDVASMAPLGAQYKLLVTKLKHFQLRTNVAFHFTASPSQPQYFLYKFPKDVDSVIIKVVSEMAYPCSVVSVQNIMCPVYDLDHNVEFNGVYQSMTKKAAITLQKKDFPGEQFFVVFVIKPEDYACGGSFFIQEKENQTWNLQRKKNLEVTIVPSIKESVYVKSSLFSVFIFLSFYLGCLLVGFVHYLRFQRKSIDGSFGSNDGSGNMVASHPIAASTPEGSNYGTIDESSSSPGRQMSSSDGGPPGQSDTDSSVEESDFDTMPDIESDKNIIRTKMFLYLSDLSRKDRRIVSKKYKIYFWNIITIAVFYALPVIQLVITYQTVVNVTGNQDICYYNFLCAHPLGVLSAFNNILSNLGHVLLGFLFLLIVLRRDILHRRALEAKDIFAVEYGIPKHFGLFYAMGIALMMEGVLSACYHVCPNYSNFQFDTSFMYMIAGLCMLKLYQTRHPDINASAYSAYASFAVVIMVTVLGVVFGKNDVWFWVIFSAIHVLASLALSTQIYYMGRFKIDLGIFRRAAMVFYTDCIQQCSRPLYMDRMVLLVVGNLVNWSFALFGLIYRPRDFASYMLGIFICNLLLYLAFYIIMKLRSSEKVLPVPLFCIVATAVMWAAALYFFFQNLSSWEGTPAESREKNRECILLDFFDDHDIWHFLSATALFFSFLVLLTLDDDLDVVRRDQIPVF
B5: SIDT1: N83Q (protein)
parent chain: MRGCLRLALLCALPWLLLAASPGHPAKSPRQPPAPRRDPFDAARGADFDHVYSGVVNLSTENIYSFNYTSQPDQVTAVRVYVNSSSENLNYPVLVVVRQQKEVLSWQVPLLFQGLYQRSYNYQEVSRTLCPSEATNETGPLQQLIFVDVASMAPLGAQYKLLVTKLKHFQLRTNVAFHFTASPSQPQYFLYKFPKDVDSVIIKVVSEMAYPCSVVSVQNIMCPVYDLDHNVEFNGVYQSMTKKAAITLQKKDFPGEQFFVVFVIKPEDYACGGSFFIQEKENQTWNLQRKKNLEVTIVPSIKESVYVKSSLFSVFIFLSFYLGCLLVGFVHYLRFQRKSIDGSFGSNDGSGNMVASHPIAASTPEGSNYGTIDESSSSPGRQMSSSDGGPPGQSDTDSSVEESDFDTMPDIESDKNIIRTKMFLYLSDLSRKDRRIVSKKYKIYFWNIITIAVFYALPVIQLVITYQTVVNVTGNQDICYYNFLCAHPLGVLSAFNNILSNLGHVLLGFLFLLIVLRRDILHRRALEAKDIFAVEYGIPKHFGLFYAMGIALMMEGVLSACYHVCPNYSNFQFDTSFMYMIAGLCMLKLYQTRHPDINASAYSAYASFAVVIMVTVLGVVFGKNDVWFWVIFSAIHVLASLALSTQIYYMGRFKIDLGIFRRAAMVFYTDCIQQCSRPLYMDRMVLLVVGNLVNWSFALFGLIYRPRDFASYMLGIFICNLLLYLAFYIIMKLRSSEKVLPVPLFCIVATAVMWAAALYFFFQNLSSWEGTPAESREKNRECILLDFFDDHDIWHFLSATALFFSFLVLLTLDDDLDVVRRDQIPVF
B6: SIDT1: N282Q (protein)
parent chain: MRGCLRLALLCALPWLLLAASPGHPAKSPRQPPAPRRDPFDAARGADFDHVYSGVVNLSTENIYSFNYTSQPDQVTAVRVYVNSSSENLNYPVLVVVRQQKEVLSWQVPLLFQGLYQRSYNYQEVSRTLCPSEATNETGPLQQLIFVDVASMAPLGAQYKLLVTKLKHFQLRTNVAFHFTASPSQPQYFLYKFPKDVDSVIIKVVSEMAYPCSVVSVQNIMCPVYDLDHNVEFNGVYQSMTKKAAITLQKKDFPGEQFFVVFVIKPEDYACGGSFFIQEKENQTWNLQRKKNLEVTIVPSIKESVYVKSSLFSVFIFLSFYLGCLLVGFVHYLRFQRKSIDGSFGSNDGSGNMVASHPIAASTPEGSNYGTIDESSSSPGRQMSSSDGGPPGQSDTDSSVEESDFDTMPDIESDKNIIRTKMFLYLSDLSRKDRRIVSKKYKIYFWNIITIAVFYALPVIQLVITYQTVVNVTGNQDICYYNFLCAHPLGVLSAFNNILSNLGHVLLGFLFLLIVLRRDILHRRALEAKDIFAVEYGIPKHFGLFYAMGIALMMEGVLSACYHVCPNYSNFQFDTSFMYMIAGLCMLKLYQTRHPDINASAYSAYASFAVVIMVTVLGVVFGKNDVWFWVIFSAIHVLASLALSTQIYYMGRFKIDLGIFRRAAMVFYTDCIQQCSRPLYMDRMVLLVVGNLVNWSFALFGLIYRPRDFASYMLGIFICNLLLYLAFYIIMKLRSSEKVLPVPLFCIVATAVMWAAALYFFFQNLSSWEGTPAESREKNRECILLDFFDDHDIWHFLSATALFFSFLVLLTLDDDLDVVRRDQIPVF
B7: SIDT1: kifunensine, pH 7.5 (protein)
parent chain: MRGCLRLALLCALPWLLLAASPGHPAKSPRQPPAPRRDPFDAARGADFDHVYSGVVNLSTENIYSFNYTSQPDQVTAVRVYVNSSSENLNYPVLVVVRQQKEVLSWQVPLLFQGLYQRSYNYQEVSRTLCPSEATNETGPLQQLIFVDVASMAPLGAQYKLLVTKLKHFQLRTNVAFHFTASPSQPQYFLYKFPKDVDSVIIKVVSEMAYPCSVVSVQNIMCPVYDLDHNVEFNGVYQSMTKKAAITLQKKDFPGEQFFVVFVIKPEDYACGGSFFIQEKENQTWNLQRKKNLEVTIVPSIKESVYVKSSLFSVFIFLSFYLGCLLVGFVHYLRFQRKSIDGSFGSNDGSGNMVASHPIAASTPEGSNYGTIDESSSSPGRQMSSSDGGPPGQSDTDSSVEESDFDTMPDIESDKNIIRTKMFLYLSDLSRKDRRIVSKKYKIYFWNIITIAVFYALPVIQLVITYQTVVNVTGNQDICYYNFLCAHPLGVLSAFNNILSNLGHVLLGFLFLLIVLRRDILHRRALEAKDIFAVEYGIPKHFGLFYAMGIALMMEGVLSACYHVCPNYSNFQFDTSFMYMIAGLCMLKLYQTRHPDINASAYSAYASFAVVIMVTVLGVVFGKNDVWFWVIFSAIHVLASLALSTQIYYMGRFKIDLGIFRRAAMVFYTDCIQQCSRPLYMDRMVLLVVGNLVNWSFALFGLIYRPRDFASYMLGIFICNLLLYLAFYIIMKLRSSEKVLPVPLFCIVATAVMWAAALYFFFQNLSSWEGTPAESREKNRECILLDFFDDHDIWHFLSATALFFSFLVLLTLDDDLDVVRRDQIPVF

The first series is described as follows: Western blot of cells and medium, HEK293F. Particulars: glycan lost; control: WT SIDT1ECD. A general note: In western blotting, separated proteins are transferred to a membrane and probed.
For the protein B1, the expression_or_secretion result is on record as “decreases”.
Same read-out and setting: the entry for B2 is “decreases”.
Still for that read-out and setting: under B3 stands “decreases”; under B4, “decreases”.
Same read-out and setting: under B5 stands “no change”; under B6, “no change”.

The nature of another series: differential scanning fluorometry (Tycho). Particulars: glycan changed form; control: SIDT1ECD expressed without kifunensine, same pH. A general note: DSF heats the sample and reads unfolding from a dye or from intrinsic fluorescence.
Regarding B7, the “stability_or_folding, Tm” value was “decreases, decrease of 4.7 vs 55.1 (pH 7.5), 60.5 (pH 5.5), 61.1 (pH 3.5)”.
